The record followed here is patent US20100291145A1.

In this assay the target is human melanoma gp100(46-58) peptide, Ac-…-NH2 (human). Description: ELISA, gp100(46-58) peptide on plate; naive DR4-IE Tg serum; anti-IgG2a detection. A general note: In an ELISA, binding on a coated surface is turned into a signal by an enzyme label.

Turning to “serum of naive DR4-IE Tg mice (control of Tables 23.9 and 23.10) (antibody)”, the ELISA IgG2a signal at serum dilution 1:20 worked out at 0.063, the ELISA IgG2a signal at serum dilution 1:60 was 0.058, the ELISA IgG2a signal at serum dilution 1:180 was found to be 0.056 and the ELISA IgG2a signal at serum dilution 1:540 came to 0.055.
